B1: FAM189A2 (parent)
chain: VAAALRYLQIFATRRSCIDESQIS

Variants of: B1
Experiment: protein stability index of a GFP-peptide fusion (GPS, HEK-293T) (PSI 1-6); higher = more stable
Conditions: c terminus: a fixed tail appended
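Also: lentivirally expressed fusions sorted by FACS into six bins by GFP to DsRed ratio, PSI derived from sequencing read proportions per bin multiplied by bin number.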

Variant	protein stability index
VAAALRYLDIFATRRSCIDESQIS	2.94
VAAALRYLKIFATRRSCIDESQIS	1.7
VAAALRYLTIFATRRSCIDESQIS	3.26
VAAALRYLIIFATRRSCIDESQIS	3.15
VAAALRYLAIFATRRSCIDESQIS	2.72
VAAALRYLLIFATRRSCIDESQIS	2.47
VAAALRYLVIFATRRSCIDESQIS	2.85
VAAALRYLRIFATRRSCIDESQIS	2.24
VAAALRYLWIFATRRSCIDESQIS	2.67
VAAALRYLNIFATRRSCIDESQIS	1.81
VAAALRYLPIFATRRSCIDESQIS	2.14
VAAALRYLMIFATRRSCIDESQIS	5.39
VAAALRYLEIFATRRSCIDESQIS	3.07
VAAALRYLCIFATRRSCIDESQIS	3.59
VAAALRYLQEFATRRSCIDESQIS	2.08
VAAALRYLQKFATRRSCIDESQIS	2.73
VAAALRYLQCFATRRSCIDESQIS	1.72
VAAALRYLQHFATRRSCIDESQIS	1.7
VAAALRYLQFFATRRSCIDESQIS	1.73
VAAALRYLQPFATRRSCIDESQIS	2.77
VAAALRYLQRFATRRSCIDESQIS	2.55
VAAALRYLQDFATRRSCIDESQIS	2.24
VAAALRYLQMFATRRSCIDESQIS	2.68
VAAALRYLQAFATRRSCIDESQIS	1.73

Variant	protein stability index
VAAALRYLQTFATRRSCIDESQIS	1.59
VAAALRYLQQFATRRSCIDESQIS	2.37
VAAALRYLQGFATRRSCIDESQIS	1.87
VAAALRYLQWFATRRSCIDESQIS	2.48
VAAALRYLQVFATRRSCIDESQIS	1.69
VAAALRYLQSFATRRSCIDESQIS	2.19
VAAALRYLQNFATRRSCIDESQIS	2.51
VAAAWRYLQIFATRRSCIDESQIS	3.03
VAAAMRYLQIFATRRSCIDESQIS	1.46
VAAAVRYLQIFATRRSCIDESQIS	4.11
VAAARRYLQIFATRRSCIDESQIS	2.94
VAAANRYLQIFATRRSCIDESQIS	1.92
VAAAPRYLQIFATRRSCIDESQIS	2.08
VAAAYRYLQIFATRRSCIDESQIS	3.26
VAAAIRYLQIFATRRSCIDESQIS	3.7
VAAATRYLQIFATRRSCIDESQIS	1.66
VAAASRYLQIFATRRSCIDESQIS	1.41
VAAAQRYLQIFATRRSCIDESQIS	2.12
VAAAKRYLQIFATRRSCIDESQIS	1.48
VAAALRYKQIFATRRSCIDESQIS	1.89
VAAALRYPQIFATRRSCIDESQIS	1.68
VAAALRYYQIFATRRSCIDESQIS	3.39
VAAALRYRQIFATRRSCIDESQIS	1.84
VAAALRYVQIFATRRSCIDESQIS	2.6

Variant	protein stability index
VAAALRYAQIFATRRSCIDESQIS	2.36
VAAALRYCQIFATRRSCIDESQIS	2.81
VAAALRYDQIFATRRSCIDESQIS	2.44
VAAALRYHQIFATRRSCIDESQIS	2.08
VAAALRYSQIFATRRSCIDESQIS	1.9
VAAALRYFQIFATRRSCIDESQIS	2.23
VAAALRYGQIFATRRSCIDESQIS	1.34
VAAALRYQQIFATRRSCIDESQIS	1.6
VAAALRYEQIFATRRSCIDESQIS	2.04
VAAALRYTQIFATRRSCIDESQIS	2.02
VAAALRYNQIFATRRSCIDESQIS	2.14
VAAALRYIQIFATRRSCIDESQIS	1.98
VAAALEYLQIFATRRSCIDESQIS	2.75
VAAALLYLQIFATRRSCIDESQIS	3.52
VAAALMYLQIFATRRSCIDESQIS	4.04
VAAALIYLQIFATRRSCIDESQIS	4.08
VAAALQYLQIFATRRSCIDESQIS	2.54
VAAALGYLQIFATRRSCIDESQIS	1.81
VAAALKYLQIFATRRSCIDESQIS	1.68
VAAALTYLQIFATRRSCIDESQIS	2.41
VAAALYYLQIFATRRSCIDESQIS	2.79
VAAALVYLQIFATRRSCIDESQIS	2.96
VAAALHYLQIFATRRSCIDESQIS	2.98
VAAALNYLQIFATRRSCIDESQIS	1.23

Variant	protein stability index
VAAALSYLQIFATRRSCIDESQIS	1.89
VAAALPYLQIFATRRSCIDESQIS	2.76
VAAALCYLQIFATRRSCIDESQIS	3.52
VAAALDYLQIFATRRSCIDESQIS	1.69
VAAALRSLQIFATRRSCIDESQIS	2.92
VAAALRHLQIFATRRSCIDESQIS	2.25
VAAALRNLQIFATRRSCIDESQIS	1.98
VAAALRALQIFATRRSCIDESQIS	1.95
VAAALRGLQIFATRRSCIDESQIS	2.02
VAAALRVLQIFATRRSCIDESQIS	2.4
VAAALRILQIFATRRSCIDESQIS	1.99
VAAALRLLQIFATRRSCIDESQIS	2.68
VAAALRELQIFATRRSCIDESQIS	2.41
VAAALRQLQIFATRRSCIDESQIS	2.64
VAAALRKLQIFATRRSCIDESQIS	1.63
VAAALRMLQIFATRRSCIDESQIS	2.22
VAAALRPLQIFATRRSCIDESQIS	2.04
VAAALRFLQIFATRRSCIDESQIS	3.33
VAAALRRLQIFATRRSCIDESQIS	1.85
VAAALRDLQIFATRRSCIDESQIS	1.76
VAAALRCLQIFATRRSCIDESQIS	2.06
VAAALRTLQIFATRRSCIDESQIS	2.49
